Measured values published in patent US20190262327A1, “COMBINATION OF A BACE INHIBITOR AND AN ANTIBODY OR ANTIGEN-BINDING FRAGMENT FOR THE TREATMENT OF A DISORDER ASSOCIATED WITH THE ACCUMULATION OF AMYLOID BETA” (ASTRAZENECA AB, priority 2016, published 2019).

What follows are molecules tested against T1, human Amyloid beta 1-42 peptide (Homo sapiens, UniProt P05067) (assay: Surface Plasmon Resonance kinetic profiling of purified scFv (ProteOn)). Settings: biotinylated human Amyloid beta 1-42 on streptavidin chip.
T1 construct: biotinylated human Amyloid beta 1-42 peptide (rpeptide, USA; cat: A1117); purchased rPeptide, USA A1117; host or cells: synthetic peptide
T1 sequence (P05067 672-713): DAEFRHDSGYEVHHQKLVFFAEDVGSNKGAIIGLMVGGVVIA
Type: binding
From the text: Surface Plasmon Resonance was used to analyse the purified scFv clones that had shown significant improvement in binding affinity for human Amyloid beta 1-42 peptide over the parent sequence, Abet0144-GL, in the HTRF™ epitope competition assay (sections 1.3-1.6). Briefly, the ProteOn Protein Interaction Array System (BioRad, USA) was used to assess the kinetic parameters of the interaction between each purified scFv and synthetically produced human Amyloid beta 1-42 peptide. These experiments were performed essentially as described by Karlsson et al. (Karlsson et al., 1991).
The affinity of binding between each test scFv and human Amyloid beta 1-42 was estimated using assays in which biotinylated synthetic human Amyloid beta 1-42 peptide (rPeptide, USA; cat: Al 117) was non-covalently bound via a biotin/streptavidin interaction to a proprietary streptavidin chip (NTA 176-5021) at five different surface densities. The chip surface was regenerated between cycles by a single 60 second injection of 10 mM Glycine pH 2.0 to remove scFv bound to the peptide.
Each scFv at 100-200 nM was sequentially passed over the peptide surface for a sufficient amount of time to observe sensorgrams that could be fitted to an appropriate binding model with confidence. An irrelevant scFv blank was subtracted from the main dataset to reduce the impact of any buffer artefacts or non-specific binding effects. An appropriate binding model was then fitted to the data.

Molecule | ka [M⁻¹ s⁻¹] | kd [s⁻¹]
Abet0322b: optimized anti-Aβ1-42 clone derived from Abet0144-GL (protein, left off: small tags and cut ends, optimized anti-Aβ1-42 clone derived from Abet0144-GL) scFv (part 1 of 2): EVQLLESGGGLVQPGGSLRLSCAASNEEFQYNPMWWVRQAPGKGLEWVSVIGSSGGATVYADAVKGRFTISRDNSENTLYLQMNSLRAEDTAVYYCAREWMDHSRPYYYYGMDVWGQGTLVTVSS scFv (part 2 of 2): SYELTQPPSVSVSPGQTASITCSGHNLGDKFASWYQQKPGQSPVLVIYRDDKRPSEIPERFSASNSGHTATLTISGTQATDEADYYCSSQDTVTRVFGGGTKLTVL | 203000 | 0.000165
Abet0373: optimized anti-Aβ1-42 clone derived from Abet0144-GL (protein, left off: small tags and cut ends, optimized anti-Aβ1-42 clone derived from Abet0144-GL) scFv (part 1 of 2): EVQLLESGGGLVQPGGSLRLSCVASGFDFERSVMWWVRQAPGKRLEWVSVIGSGKTNITYADSVKGRFTISRDNSKNTLYLQMNSLRAEDTAVYYCAREWMDHSRPYYYYGMDVWGQGTLVTVSS scFv (part 2 of 2): SYELTQPPSVSVSPGQTASITCSGHNLEDKFASWYQQKPGQSPVLVIYRDDKRPSEIPERFSASNSGHTATLTISGTQATDEADYYCSSQDTVTRVFGGGTKLTVL | 185000 | 8.92e-05
Abet0343: optimized anti-Aβ1-42 clone from VH1:VH2:VL3 recombination library (protein, left off: small tags and cut ends, optimized anti-Aβ1-42 clone from VH1:VH2:VL3 recombination library) scFv (part 1 of 2): EVQLLESGGGLVQPGGSLRLSCAASGFNFNHQVMWWVRQAPGKGLEWVSVIGKTNENIAYADSVKGRFTISRDNSKNTLYLQMNSLRAEDTAVYYCAREWMDHSRPYYYYGMDVWGQGTLVTVSS scFv (part 2 of 2): QSVLTQPPSVSVSPGQTASITCSGHNLEDKFASWYQQKSGQSPVLVIYRDDKRPSGIPERFSASNSGHTATLTISGTQATDEADYYCSSQDTVTRVFGGGTKLTVL | 120000 | 2.25e-05
Abet0323b: optimized anti-Aβ1-42 clone derived from Abet0144-GL (protein, left off: small tags and cut ends, optimized anti-Aβ1-42 clone derived from Abet0144-GL) scFv (part 1 of 2): EVQLLESGGGLVQPGGSLRLSCAASTSTFQEDTMWWVRQAPGKGLEWVSVIGPNPKNNAYADSVKGRFTISRDNSKNTLYLQMNSLRAEDTAVYYCAREWMDHSRPYYYYGMDVWGQGTLVTVSS scFv (part 2 of 2): SYELTQPPSVSVSPGQTASITCSGHNLEDKFASWYQQKPGQSPVLVIYRDDKRPSGVPERFSASNSGHTATLTISGTQATDEADYYCSSQDTVTRVFGGGTKLIVL | 210000 | 0.000188
Abet0372: optimized anti-Aβ1-42 clone derived from Abet0144-GL (protein, left off: small tags and cut ends, optimized anti-Aβ1-42 clone derived from Abet0144-GL) scFv (part 1 of 2): EVQLLESGGGLVQPGGSLRLSCAASSDMFNIETMWWVRQAPGKGLEWVSVIGKGMNNVSYADSVKGRFTISRDNSKNTLYLQMNSLRAEDTAVYYCAREWMDHSRPYYYYGMDVWGQGTLVTVSS scFv (part 2 of 2): SYELTQPPSVSVSPGQTASITCSGHNLEDKFASWYQQKPGQSPVLVIYRDDKRPSGIPERFSASNSGHTATLTISGTQATDEADYYCSSQDTVTRVFGGGTKLTVL | 243000 | 0.000176
Abet0371: optimized anti-Aβ1-42 clone derived from Abet0144-GL (protein, left off: small tags and cut ends, optimized anti-Aβ1-42 clone derived from Abet0144-GL) scFv (part 1 of 2): EVQLSESGGGLVQPGGSLRLSCAASHDAFPFDTMWWVRQAPGKGLEWVSVIGSSGGTTVYADSVKGRFTVSRDNSKNTLYLQMNSLRAEDTAVYYCAREWMDHSRPYYYYGMDVWGQGTLVTVSS scFv (part 2 of 2): SYELTQPPSVSVSPGQTASITCSGHNISSSWVSWYQQKPGQSPVLVIYRDDKRPSGIPERFSASNSGHTATLTISGTQATDEADYYCSSQDTVTRVFGGGTKLTVL | 357000 | 0.000272
Abet0374: optimized anti-Aβ1-42 clone derived from Abet0144-GL (protein, left off: small tags and cut ends, optimized anti-Aβ1-42 clone derived from Abet0144-GL) scFv (part 1 of 2): EVQLLESGGGLVQPGGSLRLSCAASGFQFKDTPMWWVRQAPGKGLEWVSVIGDQNHKKAYADSVKGRFTISRDNSKNTLYLQMNSLRAEDTAVYYCAREWMDHSRPYYYYGMDAWGQGTLVTVSS scFv (part 2 of 2): SYELTQPPSVSVTPGQTASITCSGHNLGGKFASWYQQKPGQSPVLVIYRDDKRPSGIPERFSASNFGHTATLTISGTQATDEADYYCSSQDTVTRVFGGGTKLTVL | 256000 | 6.04e-05
Abet0342: optimized anti-Aβ1-42 clone derived from Abet0144-GL (protein, left off: small tags and cut ends, optimized anti-Aβ1-42 clone derived from Abet0144-GL) scFv (part 1 of 2): EVQLLESGGGLVQPGGSLRLSCAASGFDFRRSVMWWVRQAPGKGLEWVSVIGAQTQNKAYADSVKGRFTISRDNSKNTLYLQMNSLRAEDTAVYYCAREWMDHSRPYYYYGMDVWGQGTLVTVSS scFv (part 2 of 2): SYELTQPPSVSVSPGQTASITCSGHNLEDKFASWYQQKPGQSPVLVIYRDDKRPSGIPERFSASNSGDTATLTISGTQAMDEADYYCQAQDSTTRVFGGGTKLTVL | 136000 | 5.73e-05
Abet0344: optimized anti-Aβ1-42 clone derived from Abet0144-GL (protein, left off: small tags and cut ends, optimized anti-Aβ1-42 clone derived from Abet0144-GL) scFv (part 1 of 2): EVQLLESGGGLVQPGGSLSLSCAASGFTFSVYTMWWVRQAPGKGLEWVSVIGGNETRKAYADSVKGRFTISRDNSKNRLYLQMNSLRAEDTAVYYCAREWMDHSRPYYYYGMDVWGQGTLVTVSS scFv (part 2 of 2): QSVLTQPPSVSVSPGQTASITCSGHNLEDKFASWYQQKSGQSPVLVIYRDDKRPSGIPERFSASNSGHTATLTISGTQATDEADYYCATQDNFTRVFGGGTKLTVL | 77500 | 5.73e-05
Abet0368: optimized anti-Aβ1-42 clone derived from Abet0144-GL (protein, left off: small tags and cut ends, optimized anti-Aβ1-42 clone derived from Abet0144-GL) scFv (part 1 of 2): EVQLLESGGGLVQPGGSLRLSCAASGFDFGPSPMWWVRQAPGKGLEWVSVIGKDTQNSTYADSVKGRFTISRDNSKDTLYLQMNSLKAEDTAVYYCAREWMDHSRPYYYYGMDVWGQGTLVTVSS scFv (part 2 of 2): SYELTQPPSVSVSPGQTASITCSGHNLEDKFTSWYQQKSGQSPVLVIYRDDKRPSGIPERFSASNSGHTATLTISGAQATDEADYYCSSQDTVTRVFGGGTKLTVL | 187000 | 9e-05
Abet0329: optimized anti-Aβ1-42 clone derived from Abet0144-GL (protein, left off: small tags and cut ends, optimized anti-Aβ1-42 clone derived from Abet0144-GL) scFv (part 1 of 2): EVQLLESGGGLVQPGGSLRLSCAASTFNLKRETMWWVRQAPGKGLEWVSVIGSHQERTSYADSVKGRFTISRDNSKNTLYLQMNSLRAEDTAVYYCAREWMDHSRPYYYYGMDVWGQGTLVTVSS scFv (part 2 of 2): SYELTQPPSVSVSPGQTASITCSGHNVSDKWMTWYQQKPGQSPVLVIYRDDKRPSGIPERFSASNSGHTATLTISGTQATDEADYYCSSQDTVTRVFGGGTKLTVL | 197000 | 0.000138
Abet0328: optimized anti-Aβ1-42 clone derived from Abet0144-GL (protein, left off: small tags and cut ends, optimized anti-Aβ1-42 clone derived from Abet0144-GL) scFv (part 1 of 2): EVQLLESGGGLVQPGGSLRLSCAASRDPFKADTMWWVRQAPRKRLEWVSVIGAHTTNSAYADSVKGRFTISRDNSKNTLYLQMNSLRAEDTAVYYCAREWMDRSRPYYYYGMDVWGQGTLVTVSS scFv (part 2 of 2): SYELTQPPSVSVSPGQTVSITCSGRNLEDKFASWYQQKPGQSPVLVIYRDDKRPSGVPERFSASNSGHTATLTISGTQATDEADYYCSSQDTVTRVFGGGTKLTVL | 141000 | 0.000103
Abet0332: optimized anti-Aβ1-42 clone derived from Abet0144-GL (protein, left off: small tags and cut ends, optimized anti-Aβ1-42 clone derived from Abet0144-GL) scFv (part 1 of 2): EVQLLESGGGLVQPGESLRLSCAASSDSWHTDIMWWVRQAPGKRLEWVSVIGNSNKKIAYADSVKGRFTISRDNSKNTLYLQMNSLRAEDTAVYYCAREWMDHSRPYYYYGMDVWGQGTLVTVSS scFv (part 2 of 2): SYELTQPPSVSVSPGQTASITCSGHNIGAKWVSWYQQKPGQSPILVIYRDDKRPSGIPERFSASNSGHTATLTISGTQATDEADYYCQAQGQVTRSFGGGTKLTVL | 329000 | 0.000129
Abet0370: optimized anti-Aβ1-42 clone derived from Abet0144-GL (protein, left off: small tags and cut ends, optimized anti-Aβ1-42 clone derived from Abet0144-GL) scFv (part 1 of 2): EVQLLESGGGLVQPGGSLRLSCAASGFHFPMSAMWWVRQAPGKGLEWVSVIGETPERQAYADSVKGRFTISRDNSKSTLYLQMNSLRAEDTAVYYCAREWMDHSRPYYYYGMDVWGQGTLVTVSS scFv (part 2 of 2): SYELTQPPSVSVSPGQTASITCTTPHFNSKFASWYQQKPGQSPVLVIYRDDKRPSGIPERFSASNSGHTATLTISGTQAMDEADYYCQAQDSTTRVFGGGTRLTVL | 119000 | 7.76e-05
